± gives the uncertainty stated by the source.
Experiment: self-splicing fitness, log relative to wild type (ln ratio); higher = more splicing; Tetrahymena group I intron in knt gene, E. coli kanamycin selection, DiMSum; sequences stand for … in CUCUCU…GGAGGGAAAAGUUAUCAGGCAUGCACCUGGUAGCUAGUCUUUAAACCAAUAGAUUGCAUCGGUUUAAAAGGCAAGACCGUCAAAUUGCGGGAAAGGGGUCAACAGCCGUUCAGUACCAAGUCUCAGGGGAAACUUUGAGAUGGCCUUGCAAAGGGUAUGGUAAUAAGCUGACGGACAUGGUCCUAACCACGCAGCCAAGUCCUAAGUCAACAGAUCUUCUGUUGAUAUGGAUGCAGUUCACAGACUAAAUGUCGGUCGGGGAAGAUGUAUUCUUCUCAUAAGAUAUAGUCGGACCUCUCCUUAAUGGGAGCUAGCGGAUGAAGUGAUGCAACACUGGAGCCGCUGGGAACUAAUUUGUAUGCGAAAGUAUAUUGAUUAGUUUUGGAGUACUCGUGGUCG
Procedure, shortened: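 Colonies from six replicate transformations of E. coli BL21(DE3) were pooled and amplicon-sequenced on an Illumina HiSeq 2500. The library placed an intron with all eight P1ex-region nucleotides randomised inside the knt kanamycin-resistance gene on pET-22b(+), and cells grew overnight at 37°C or 30°C on LB agar with or without 25 μg/mL kanamycin (plus 100 μg/mL carbenicillin, 50 μM IPTG, 0.2% rhamnose). Fitness is the DiMSum error-weighted combination of wild-type-normalised replicate fold changes, kanamycin versus none.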

| Sequence | self-splicing fitness (ln) (30 °C) | self-splicing fitness (ln) (37 °C) |
| --- | --- | --- |
| AACUAGCAAUAUUACGUCGA | -0.769 ± 0.087 | -0.975 ± 0.09 |
| AACUAGCAAUAUUACGUGAA | -1.86 ± 0.081 | -1.51 ± 0.11 |
| AACUAGCAAUAUUACGUUUC | -3.35 ± 0.18 | -2.58 ± 0.25 |
| AAGAAGCAAUAUUACGAAGA | -3.29 ± 0.19 | -2.15 ± 0.19 |
| AAGAAGCAAUAUUACGAAGU | -2.48 ± 0.16 | -2.12 ± 0.21 |
| AAGAAGCAAUAUUACGAGGU | -3.38 ± 0.33 | -2.42 ± 0.42 |
| AAGAAGCAAUAUUACGAUCG | -1.23 ± 0.12 | -0.674 ± 0.14 |
| AAGAAGCAAUAUUACGCAAG | -2.01 ± 0.13 | -1.15 ± 0.13 |
| AAGAAGCAAUAUUACGCCAC |  | -2.7 ± 0.48 |
| AAGAAGCAAUAUUACGCGUC | -2.48 ± 0.27 | -1.21 ± 0.3 |
| AAGAAGCAAUAUUACGCUAC | -2.18 ± 0.24 | -1.93 ± 0.44 |
| AAGAAGCAAUAUUACGGACG | -0.677 ± 0.071 | 0.0583 ± 0.11 |
| AAGAAGCAAUAUUACGGCGC | -0.183 ± 0.19 | -0.28 ± 0.25 |
| AAGAAGCAAUAUUACGGGAG | -2.62 ± 0.12 | -1.47 ± 0.11 |
| AAGAAGCAAUAUUACGUAGU | -2.52 ± 0.16 | -1.14 ± 0.15 |
| AAGAAGCAAUAUUACGUAUC | -2.31 ± 0.16 | -0.892 ± 0.18 |
| AAGAAGCAAUAUUACGUCCA | -0.641 ± 0.13 | 0.0432 ± 0.14 |
| AAGAAGCAAUAUUACGUCGC | -3.47 ± 0.19 | -2.2 ± 0.16 |
| AAGAAGCAAUAUUACGUGAG | -1.35 ± 0.046 | -0.828 ± 0.075 |
| AAGAAGCAAUAUUACGUGUC | -3.38 ± 0.15 | -2.09 ± 0.17 |
| AAGAAGCAAUAUUACGUGUU | -2.15 ± 0.13 | -1.61 ± 0.13 |
| AAGAAGCAAUAUUACGUUGC | -4.64 ± 0.31 | -3.65 ± 0.32 |
| AAGAAGCAAUAUUACGUUUU | -3.3 ± 0.11 | -1.33 ± 0.091 |
| AAGCAGCAAUAUUACGAACC | -2.26 ± 0.14 | -0.526 ± 0.15 |
| AAGCAGCAAUAUUACGACGG | -2.19 ± 0.088 | -1.17 ± 0.09 |
| AAGCAGCAAUAUUACGACUG | -2.67 ± 0.12 | -1.8 ± 0.14 |

| Sequence | self-splicing fitness (ln) (30 °C) | self-splicing fitness (ln) (37 °C) |
| --- | --- | --- |
| AAGCAGCAAUAUUACGAUCC | -1.73 ± 0.24 | 0.0481 ± 0.24 |
| AAGCAGCAAUAUUACGCACU | 0.0285 ± 0.094 | 0.781 ± 0.12 |
| AAGCAGCAAUAUUACGCAGG | -2.34 ± 0.14 | -1.13 ± 0.11 |
| AAGCAGCAAUAUUACGCCAU | -2.13 ± 0.19 | -1.69 ± 0.28 |
| AAGCAGCAAUAUUACGCCCG | -0.844 ± 0.21 | 1.38 ± 0.32 |
| AAGCAGCAAUAUUACGCCUA | 0.0257 ± 0.11 | -0.183 ± 0.13 |
| AAGCAGCAAUAUUACGCUAC | -2.96 ± 0.24 | -2.31 ± 0.24 |
| AAGCAGCAAUAUUACGCUAU | -2.17 ± 0.14 | -0.814 ± 0.13 |
| AAGCAGCAAUAUUACGCUCU | -1.55 ± 0.098 | -0.549 ± 0.11 |
| AAGCAGCAAUAUUACGCUGA | -3.07 ± 0.11 | -1.98 ± 0.11 |
| AAGCAGCAAUAUUACGCUUA | -1.9 ± 0.15 | -1.24 ± 0.14 |
| AAGCAGCAAUAUUACGCUUU | -4.53 ± 0.2 | -2.87 ± 0.22 |
| AAGCAGCAAUAUUACGGAUC | -1.81 ± 0.093 | -1 ± 0.1 |
| AAGCAGCAAUAUUACGGAUU | -0.723 ± 0.055 | -0.000157 ± 0.077 |
| AAGCAGCAAUAUUACGGUUC | -2.24 ± 0.097 | -2.02 ± 0.12 |
| AAGCAGCAAUAUUACGUAAG | -1.49 ± 0.074 | -1.02 ± 0.088 |
| AAGCAGCAAUAUUACGUCAG | -3.06 ± 0.2 | -2.43 ± 0.23 |
| AAGCAGCAAUAUUACGUGAC | -3.33 ± 0.14 | -2.38 ± 0.18 |
| AAGCAGCAAUAUUACGUGGA | -3.63 ± 0.21 | -1.44 ± 0.11 |
| AAGCAGCAAUAUUACGUGUG | -2.67 ± 0.083 | -1.92 ± 0.11 |
| AAGGAGCAAUAUUACGAACU | -1.63 ± 0.15 | 0.581 ± 0.21 |
| AAGGAGCAAUAUUACGAGUC | -3.2 ± 0.47 | -2.05 ± 0.23 |
| AAGGAGCAAUAUUACGAUUU | -0.545 ± 0.12 | 0.0878 ± 0.15 |
| AAGGAGCAAUAUUACGCCAA | -4.19 ± 0.46 | -3.11 ± 0.3 |
| AAGGAGCAAUAUUACGCGUA | -3.11 ± 0.28 | -1.29 ± 0.17 |
| AAGGAGCAAUAUUACGCUCU | -3.15 ± 0.18 | -3.85 ± 0.42 |

| Sequence | self-splicing fitness (ln) (30 °C) | self-splicing fitness (ln) (37 °C) |
| --- | --- | --- |
| AAGGAGCAAUAUUACGCUUC |  | -1.88 ± 0.39 |
| AAGGAGCAAUAUUACGGACC | -2.55 ± 0.17 | -2.97 ± 0.33 |
| AAGGAGCAAUAUUACGGAUA | -3.9 ± 0.35 | -1.99 ± 0.29 |
| AAGGAGCAAUAUUACGGCGG | -4.57 ± 0.3 | -2.12 ± 0.32 |
| AAGGAGCAAUAUUACGGCUU | -2.58 ± 0.25 | -1.64 ± 0.28 |
| AAGGAGCAAUAUUACGUAUA | -2.76 ± 0.21 | -2.85 ± 0.29 |
| AAGGAGCAAUAUUACGUCAC |  | -1.45 ± 0.46 |
| AAGGAGCAAUAUUACGUCCG | -1.79 ± 0.2 | -1.03 ± 0.28 |
| AAGGAGCAAUAUUACGUGUA |  | -2.29 ± 0.27 |
| AAGGAGCAAUAUUACGUUAA | -3.12 ± 0.25 | -1.69 ± 0.19 |
| AAGGAGCAAUAUUACGUUUC | -3.26 ± 0.43 | -2.26 ± 0.43 |
| AAGUAGCAAUAUUACGAAAG | -2.94 ± 0.27 | -2.17 ± 0.25 |
| AAGUAGCAAUAUUACGAACU | -0.525 ± 0.1 | 0.139 ± 0.12 |
| AAGUAGCAAUAUUACGAGUC | -2.53 ± 0.18 | -2.47 ± 0.3 |
| AAGUAGCAAUAUUACGAGUG | -3.16 ± 0.18 | -2.03 ± 0.19 |
| AAGUAGCAAUAUUACGAUAC | -3.92 ± 0.28 | -1.71 ± 0.25 |
| AAGUAGCAAUAUUACGCACC | -1.16 ± 0.12 | -0.367 ± 0.2 |
| AAGUAGCAAUAUUACGCAUU | -2.16 ± 0.14 | -0.921 ± 0.14 |
| AAGUAGCAAUAUUACGCCAA | -2.53 ± 0.24 | -1.55 ± 0.23 |
| AAGUAGCAAUAUUACGGCGA | -0.41 ± 0.11 | -0.0374 ± 0.11 |
| AAGUAGCAAUAUUACGGGUG | -3.43 ± 0.17 | -1.14 ± 0.12 |
| AAGUAGCAAUAUUACGGUGC |  | -2.76 ± 0.32 |
| AAGUAGCAAUAUUACGUAAC | -1.51 ± 0.13 | -2.24 ± 0.24 |
| AAGUAGCAAUAUUACGUAGU | -3.59 ± 0.19 | -2.32 ± 0.21 |
| AAGUAGCAAUAUUACGUGAA | -2.36 ± 0.12 | -1.78 ± 0.13 |

— the supplement of paper PMC7877785
